Experimental data taken from patent US20210347895A1 (IMMUNOME, published 2021).

Legend:
[1] = target: T1, BSA (UniProt P02769 25-607); experiment: flow cytometry; BSA-coated latex beads, two-colour dot plot of IMM20059 against anti-CD63
T1 construct: also called BSA-coated beads

[2] = target: T2, recombinant PD-L1 (UniProt Q9NZQ7 19-238); experiment: dot blot; recombinant PD-L1 spotted at 4, 10 and 40 ng, probed with the antibody
T2 construct: also called Programmed Death Ligand-1
T2 sequence (Q9NZQ7 19-238 limits assumed): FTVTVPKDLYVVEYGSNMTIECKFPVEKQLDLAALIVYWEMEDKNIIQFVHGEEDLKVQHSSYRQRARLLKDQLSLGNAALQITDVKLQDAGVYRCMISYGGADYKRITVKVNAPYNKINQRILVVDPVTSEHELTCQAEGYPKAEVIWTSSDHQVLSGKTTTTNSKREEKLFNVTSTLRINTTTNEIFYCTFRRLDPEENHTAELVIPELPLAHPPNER
From the text: Binding activity of anti-EPN1/anti-PD-L1 DVD-IgG bispecific antibodies. […] Purified recombinant proteins were spotted at three dose levels as depicted in FIG. 10, and probed with the four anti-EPN1/anti-PD-L1 bispecific antibodies. […] An antibody specific for a coat protein on the dengue virus served as a negative control.

T1 sequence (P02769 25-607 limits assumed): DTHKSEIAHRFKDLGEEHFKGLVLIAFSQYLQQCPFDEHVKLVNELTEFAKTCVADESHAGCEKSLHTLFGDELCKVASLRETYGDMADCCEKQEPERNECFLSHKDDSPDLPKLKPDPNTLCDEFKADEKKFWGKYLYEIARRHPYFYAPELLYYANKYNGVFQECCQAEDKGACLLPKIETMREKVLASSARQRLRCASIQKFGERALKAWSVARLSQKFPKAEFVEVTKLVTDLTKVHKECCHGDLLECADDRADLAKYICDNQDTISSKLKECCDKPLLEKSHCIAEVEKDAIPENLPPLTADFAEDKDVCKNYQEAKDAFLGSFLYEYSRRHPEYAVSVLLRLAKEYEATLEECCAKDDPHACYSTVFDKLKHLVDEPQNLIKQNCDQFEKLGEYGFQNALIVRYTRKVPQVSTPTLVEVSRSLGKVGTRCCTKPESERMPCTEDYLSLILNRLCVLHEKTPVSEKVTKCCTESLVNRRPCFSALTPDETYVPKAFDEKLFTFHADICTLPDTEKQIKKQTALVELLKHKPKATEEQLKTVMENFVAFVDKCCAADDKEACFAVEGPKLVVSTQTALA

B1: IMM20059 (antibody, V domains shown)
VH: EVQLVESGGGLVQPGGSLRLSCAASGFTFSIHSLNWVRQAPGKGLEWVSYISSNSTTIYYADSVKGRFTISRDNAKDSLYLQMNSLRDEDTAVYYCARDYYCTGGTCFFLPDLWGRGALVTVSS
VL: EIVLTQSPATLSLSPGERATLSCRASQNISNFLAWYQHKPGQAPRLLIYDASIRATGIPARFSGSGSGTDFSLTISSLEPEDFAVYFCQQRYNWLTFGGGTKVEIKR
notes: Recombinantly expressed human IgG1 with the PR045-2H11 VH and VL domains
- binding result [1]: no binding
- binding result [2]: no binding (tested: 40 ng)
